Results taken from US20210403583A1 (ELIXIRON IMMUNOTHERAPEUTICS HONG KONG, published 2021).
Positions count from the first letter of the chain named. Where two headings read alike, the source gives them in different places. Blank lines part the entries; values can stand above or below the binder they belong to.

Tests used:
[1] = molecular target: T1, recombinant human CSF1R-Fc fusion protein (human, UniProt P07333 20-512); test: ELISA, coated human CSF1R-Fc (dimer)
T1 construct: probably the same protein; also called CSF1R-Fc (dimer); not shown: Fc part
T1 sequence (P07333 20-512 limits assumed): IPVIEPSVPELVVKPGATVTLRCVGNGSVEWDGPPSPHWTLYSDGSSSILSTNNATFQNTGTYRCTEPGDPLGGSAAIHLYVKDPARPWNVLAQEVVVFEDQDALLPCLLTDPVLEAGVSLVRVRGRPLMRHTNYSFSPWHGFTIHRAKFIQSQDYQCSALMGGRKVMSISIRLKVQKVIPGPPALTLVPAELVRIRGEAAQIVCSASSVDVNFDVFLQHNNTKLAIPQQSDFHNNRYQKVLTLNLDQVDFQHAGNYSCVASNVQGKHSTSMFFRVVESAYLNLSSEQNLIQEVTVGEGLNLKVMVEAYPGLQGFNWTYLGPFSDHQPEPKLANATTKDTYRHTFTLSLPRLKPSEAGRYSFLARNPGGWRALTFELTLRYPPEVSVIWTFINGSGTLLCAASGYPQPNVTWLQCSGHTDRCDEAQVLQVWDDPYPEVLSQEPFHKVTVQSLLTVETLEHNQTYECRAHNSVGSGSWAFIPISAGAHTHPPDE
Experimental: (§1) Materials and methods: Recombinant human CSF1R-His (Biolegend), or CSF1R-Fc fusion protein were immobilized on 96 well microtiter plate at a concentration of 1 μg/mL in Coating Solution (SeraCare) overnight at 4° C. The wells were washed with wash solution (0.05% Tween20 in imidazole-buffered saline) and blocked with 1% BSA. Hybridoma culture supernatants or serial dilutions of antibodies were added to wells. After incubation at 37° C. for 1 h, the wells were washed with wash solution. Peroxidase-conjugated goat anti-human kappa light chain antibody (Bethyl) was applied to each well at 37° C. for 1 h incubation. After washing, the wells were developed with TMB substrate for 5-10 min at RT and then stopped with 1 N HCl. Thereafter absorbance was measured at 450 nm and 650 nm. The EC₅₀ values were calculated through GraphPad Prism7.

[2] = molecular target: T2, recombinant human CSF1R-His (Biolegend) (human, UniProt P07333 20-512, limits assumed); test: ELISA, coated human CSF1R-His (monomer)
T2 construct: Bought protein; also called CSF1R-His (monomer); hu-CSF1R; not shown: His tag
T2 sequence (P07333 20-512 limits assumed): as above
Experimental: as §1

[3] = molecular target: T1, recombinant human CSF1R-Fc fusion …; test: competition ELISA, coated human CSF1R-Fc, competitor biotinylated CSF1-His 2.5 ug/mL
Experimental: Materials and methods: Recombinant human CSF1R-Fc fusion protein was immobilized on 96 well microtiter plate at a concentration of 1 μg/mL in Coating Solution (SeraCare) overnight at 4° C. The wells were washed with wash solution and blocked with 1% BSA at RT. Serial dilutions of the antibodies were added to wells. Then 2.5 ug/mL biotinylated CSF1-His (Biolegend) was added and incubated for 1 h at 37° C. After washing, Streptavidin-HRP (Jackson ImmunoResearch) was applied to wells at RT for 1 h incubation. After washing, the wells were developed with TMB substrate for 5-10 min at RT and the stopped with 1 N HCl. Thereafter absorbance was measured at 450 nm and 650 nm. The IC₅₀ values were calculated through GraphPad Prism7.

[4] = molecular target: T3, human CSF1R expressed on cells (293F/huCSF1R stable cells; AML5 cells; human monocytes and macrophages) (human, UniProt P07333 20-972); test: cell-based or functional assay
[5] = molecular target: T3, human CSF1R expressed on cells …; test: cell-based or functional assay; remark: listed apart in the source
[6] = molecular target: T3, human CSF1R expressed on cells …; test: cell-based or functional assay; remark: listed apart in the source
[7] = molecular target: T1, recombinant human CSF1R-Fc fusion …; test: ELISA, coated human CSF1R-Fc (dimer); remark: listed apart in the source
Experimental: (§2) Materials and methods: Recombinant human CSF1R-His (Biolegend), or CSF1R-Fc fusion protein, were immobilized on 96 well microtiter plate at a concentration of 1 μg/mL in Coating Solution (SeraCare) overnight at 4° C. The wells were washed with wash solution (0.05% Tween20 in imidazole-buffered saline) and blocked with 1% BSA. Serial dilutions of the antibodies were added to wells. After incubation at 3TC for 1 h, the wells were washed with wash solution. Peroxidase-conjugated goat anti-human kappa light chain antibody (Bethyl) was applied to each well at 3TC for 1 h incubation. After washing, the wells were developed with TMB substrate for 5-10 min at RT and then stopped with 1 N HCl. Thereafter absorbance was measured at 450 nm and 650 nm. The EC50 values were calculated through GraphPad Prism7.

[8] = molecular target: T2, recombinant human CSF1R-His (Biolegend); test: ELISA, coated human CSF1R-His (monomer); remark: listed apart in the source
Experimental: as §2

[9] = molecular target: T2, recombinant human CSF1R-His (Biolegend); test: BLI (Octet RED96), antibody captured on AHC biosensor, CSF1R-His in solution, 1:1 model
Experimental: Kinetic rate constants, ka and kd, for binding of 6D4 and 6M6 to CSF1R were measured by Bio-Layer Interferometry (BLI) (ForteBio Octet RED96). The BLI assay was performed using AHC (Anti-hIgG Fc Capture) biosensors (ForteBio) to capture each anti-CSF1R antibody (2 μg/mL) to acquire a 0.5 nm shift and then the biosensors were dipped into varying concentrations (i.e. 0, 0.549, 1.65, 4.94, 14.8, 44.4, 133.3 and 400 nM) of recombinant CSF1R-His protein in running buffer containing PBS-Tween 20 (0.1%), BSA (0.1%). Rate constants were calculated by curve fitting analyses (1:1 Langmuir model) of binding response with a 5-minute association and 15-minute dissociation interaction time.

[10] = molecular target: T3, human CSF1R expressed on cells …; test: cell-based or functional assay; remark: listed apart in the source
[11] = molecular target: T3, human CSF1R expressed on cells …; test: cell-based or functional assay; remark: listed apart in the source
[12] = molecular target: T1, recombinant human CSF1R-Fc fusion …; test: ELISA, coated human CSF1R-Fc
Experimental: Materials and methods: Recombinant human CSF1R-Fc, or mouse CSF1R-Fc (Sino Biological) were immobilized on 96 well microtiter plate at a concentration of 1 μg/mL in Coating Solution (SeraCare) overnight at 4° C. The wells were washed with wash solution (0.05% Tween20 in imidazole-buffered saline) and blocked with 1% BSA. Serial dilutions of the anti-CSF1R/IL-10 fusion proteins were added to wells. After incubation at 3TC for 1 h, the wells were washed with wash solution. To detect chimeric Ab/IL10 fusions, peroxidase-conjugated goat anti-human kappa light chain antibody (Bethyl) was applied to each well at 3TC for 1 h incubation. To detect AB98 or AB98/1110 fusions, peroxidase-conjugated Goat anti-mouse IgG Fab antibody (Jackson immunoresearch) was applied to each well at 3TC for 1 h incubation. After washing, the wells were developed with TMB substrate for 5-10 min at RT and then stopped with 1 N HCl. Thereafter absorbance was measured at 450 nm and 650 nm.

[13] = molecular target: T4, cynomolgus CSF1R expressed on 293F cells (cynomolgus monkey, UniProt P07333 20-972 (human entry)); test: flow cytometry titration on 293F cells overexpressing cynomolgus CSF1R, anti-human IgG-Alexa Fluor 647
T4 construct: also called cynoCSF1R
T4 chain: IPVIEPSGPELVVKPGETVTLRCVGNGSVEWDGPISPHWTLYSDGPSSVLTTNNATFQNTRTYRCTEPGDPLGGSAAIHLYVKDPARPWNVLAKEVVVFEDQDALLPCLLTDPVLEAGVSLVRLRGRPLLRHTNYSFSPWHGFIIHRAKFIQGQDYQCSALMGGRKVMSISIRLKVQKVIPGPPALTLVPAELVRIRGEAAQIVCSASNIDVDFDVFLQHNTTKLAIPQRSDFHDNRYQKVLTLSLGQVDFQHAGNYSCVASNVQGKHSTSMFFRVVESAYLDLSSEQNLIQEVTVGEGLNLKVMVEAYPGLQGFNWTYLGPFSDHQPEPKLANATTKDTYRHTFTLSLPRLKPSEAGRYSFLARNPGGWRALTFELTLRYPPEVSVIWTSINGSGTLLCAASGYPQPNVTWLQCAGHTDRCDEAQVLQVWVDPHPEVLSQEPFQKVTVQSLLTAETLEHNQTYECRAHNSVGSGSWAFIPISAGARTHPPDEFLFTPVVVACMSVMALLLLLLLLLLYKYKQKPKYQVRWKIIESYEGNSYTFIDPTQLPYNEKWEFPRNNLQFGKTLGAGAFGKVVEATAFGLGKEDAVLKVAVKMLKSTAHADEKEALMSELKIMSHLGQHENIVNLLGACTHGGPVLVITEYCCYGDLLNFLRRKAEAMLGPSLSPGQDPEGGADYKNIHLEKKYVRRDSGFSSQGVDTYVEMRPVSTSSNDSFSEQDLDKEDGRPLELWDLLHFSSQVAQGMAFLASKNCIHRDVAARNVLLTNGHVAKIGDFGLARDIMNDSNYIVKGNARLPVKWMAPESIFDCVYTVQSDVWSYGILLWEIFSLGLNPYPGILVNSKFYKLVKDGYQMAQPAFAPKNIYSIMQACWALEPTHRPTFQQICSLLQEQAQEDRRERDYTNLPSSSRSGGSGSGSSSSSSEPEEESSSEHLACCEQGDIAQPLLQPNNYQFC
Description: Materials and methods: The gene segments encoding full-length human CSF1R or cynomolgus CSF1R were obtained using Thermo gene synthesis service and cloned in a mammalian expression vector pCDNA3.4. […] After washing with FACS buffer (2%FBS in PBS), the cells were stained with anti-human IgG-Alexa Fluor 647 and analyzed by Attune N×T Flow Cytometer (Thermo Scientific).

EC50 [1]: 0.0653 nM
EC50 [2]: 0.112 nM
IC50 [3]: 1.04 nM
B1: hy6M6 (antibody, V domains shown)
VH: DVQLQQSGTVLARPGASVKMSCKASGYTFTSYWIHWVKQRPGQGLEWIGAIYPGNRDTNYNQKFKGKAKLTTVTSASTAYMELSSLTNEDSAVYYCTGAFAGYYDWYFDVWGAGTTVTVSS
VL: DIVLTQSPASLAVSLGQRATISCKASQGVDYAGDSYMNWYQQKPGQPPKLLIYVASDLDSGIPARFSGSGSGTNFTLNIHPVEEEDAATYYCQQSYEDPRTFGGGTTLEIQ
notes: Mouse hybridoma antibody; also called anti-CSF1R antibody purified from hybridoma supernatant hy6M6

IC50 (M), CSF1-dependent AML5 cell proliferation [4]: 4.62e-10 M
IC50 (M), IL-34-dependent AML5 cell proliferation [4]: 3.49e-10 M
IC50 (M), CSF1-dependent AML5 cell proliferation [6]: 4.62e-10 M
EC50 [7]: 0.381 nM
EC50 [8]: 0.531 nM
Kd [9]: 3.42 nM
koff [9]: 0.000946 s⁻¹
kon [9]: 277000 M⁻¹ s⁻¹
B2: chimeric anti-CSF1R antibody 6D4 (antibody, human IgG1, kappa)
heavy: not shown
light: DIQMNQSPSSLSASLGDTITITCHASQNINVWLSWYQQKPGNIPKLLIYKASNLHTGVPSRFSGSGSGTGFTLTISSLQPEDIATYYCQQGQSYPYTFGGGTKLEIKRTVAAPSVFIFPPSDEQLKSGTASVVCLLNNFYPREAKVQWKVDNALQSGNSQESVTEQDSKDSTYSLSSTLTLSKADYEKHKVYACEVTHQGLSSPVTKSFNRGEC
IC50 (M), CSF1-dependent survival of CD14+ monocytes [5]: 5.58e-10 M
IC50 (M), CSF1-dependent survival of macrophages [5]: 1.38e-10 M

EC50 [1]: 0.381 nM
EC50 [2]: 0.531 nM
IC50 [3]: 1.76 nM
B3: hy6D4 (antibody, V domains shown)
VH: EIQLQQSGAELVKPRASVKISCEASGYSFTGYNMNWVKQSPGKSLEWIGDINPYYGATTYNQKFKGKATLTVDKSSSTAYMQLNSLTSEDSAVYYCARRGDYGDYEGWYFDVWGAGTTVTVSS
VL: DIQMNQSPSSLSASLGDTITITCHASQNINVWLSWYQQKPGNIPKLLIYKASNLHTGVPSRFSGSGSGTGFTLTISSLQPEDIATYYCQQGQSYPYTFGGGTKLEIK
notes: Mouse hybridoma antibody; also called anti-CSF1R antibody purified from hybridoma supernatant hy6D4

IC50 (M), CSF1-dependent AML5 cell proliferation [6]: 5.46e-10 M
EC50 [7]: 0.0613 nM
EC50 [8]: 0.103 nM
B4: humanized anti-CSF1R antibody 6M6.hu12 (antibody, human IgG1, kappa)
heavy: not shown
light: DIVLTQSPDSLAVSLGERATINCKASQGVDYAGDSYMNWYQQKPGQPPKLLIYVASDLDSGIPDRFSGSGSGTDFTLTISSLQAEDVATYYCQQSYEDPRTFGGGTTLEIKRTVAAPSVFIFPPSDEQLKSGTASVVCLLNNFYPREAKVQWKVDNALQSGNSQESVTEQDSKDSTYSLSSTLTLSKADYEKHKVYACEVTHQGLSSPVTKSFNRGEC
notes: Humanized version of 6M6; also called 6M6.hul2

IC50 (M), inhibition of AML5 cell proliferation (CSF1-dependent) [10]: 1.61e-09 M
EC50 [12]: 0.252 nM
binding result [13]: binds
B5: humanized anti-CSF1R/IL10 fusion protein 6M6.hu12/IL10 (antibody, human IgG1, kappa)
heavy: not shown
light: B4 light
notes: Antibody-cytokine fusion: human IL10 fused by a linker to the C-terminus of the heavy chain
IC50 (M), inhibition of macrophage survival (CSF1-dependent) [11]: 1.49e-10 M

IC50 (M), CSF1-dependent AML5 cell proliferation [6]: 4.3e-10 M
EC50 [7]: 0.065 nM
EC50 [8]: 0.107 nM
B6: humanized anti-CSF1R antibody 6M6.hu41 (antibody, human IgG1, kappa)
heavy: not shown
light: B4 light with I62V
notes: Humanized version of 6M6

IC50 (M), inhibition of AML5 cell proliferation (CSF1-dependent) [10]: 8.93e-10 M
EC50 [12]: 0.205 nM
binding result [13]: binds
B7: humanized anti-CSF1R/IL10 fusion protein 6M6.hu41/IL10 (antibody, human IgG1, kappa)
heavy: not shown
light: B4 light with I62V
notes: Antibody-cytokine fusion: human IL10 fused by a linker to the C-terminus of the heavy chain; also called 6M6.hu41/1L10
IC50 (M), inhibition of macrophage survival (CSF1-dependent) [11]: 1.84e-10 M
